Source: patent US20120027677A1

Columns and labels:
[1] = biological target: PrP^C, nonpathogenic (cellular) form of the human prion protein (in normal human brain homogenate and human plasma) (human) (UniProt P04156)
[2] = biological target: PrP^C, nonpathogenic (cellular) form of the human prion protein (in normal human brain homogenate and human plasma) (human) (UniProt P04156); remark: listed apart in the source

Substance	ave (RLU), Nomal BH [1]	LU [2]
3F4 antibody	14.6 RLU	–
mAb SAF32 (antibody)	–	888 LU
